Where a chain is given by its changes, count along the chain named. Names and notes keep the numbering of the source. Read-outs that look alike come from different tables or passages of the source.

The target of data set [1] is T1, human guanylate cyclase 2 (GC2) (human, UniProt P51841 51-1108).
T1 sequence (looked up): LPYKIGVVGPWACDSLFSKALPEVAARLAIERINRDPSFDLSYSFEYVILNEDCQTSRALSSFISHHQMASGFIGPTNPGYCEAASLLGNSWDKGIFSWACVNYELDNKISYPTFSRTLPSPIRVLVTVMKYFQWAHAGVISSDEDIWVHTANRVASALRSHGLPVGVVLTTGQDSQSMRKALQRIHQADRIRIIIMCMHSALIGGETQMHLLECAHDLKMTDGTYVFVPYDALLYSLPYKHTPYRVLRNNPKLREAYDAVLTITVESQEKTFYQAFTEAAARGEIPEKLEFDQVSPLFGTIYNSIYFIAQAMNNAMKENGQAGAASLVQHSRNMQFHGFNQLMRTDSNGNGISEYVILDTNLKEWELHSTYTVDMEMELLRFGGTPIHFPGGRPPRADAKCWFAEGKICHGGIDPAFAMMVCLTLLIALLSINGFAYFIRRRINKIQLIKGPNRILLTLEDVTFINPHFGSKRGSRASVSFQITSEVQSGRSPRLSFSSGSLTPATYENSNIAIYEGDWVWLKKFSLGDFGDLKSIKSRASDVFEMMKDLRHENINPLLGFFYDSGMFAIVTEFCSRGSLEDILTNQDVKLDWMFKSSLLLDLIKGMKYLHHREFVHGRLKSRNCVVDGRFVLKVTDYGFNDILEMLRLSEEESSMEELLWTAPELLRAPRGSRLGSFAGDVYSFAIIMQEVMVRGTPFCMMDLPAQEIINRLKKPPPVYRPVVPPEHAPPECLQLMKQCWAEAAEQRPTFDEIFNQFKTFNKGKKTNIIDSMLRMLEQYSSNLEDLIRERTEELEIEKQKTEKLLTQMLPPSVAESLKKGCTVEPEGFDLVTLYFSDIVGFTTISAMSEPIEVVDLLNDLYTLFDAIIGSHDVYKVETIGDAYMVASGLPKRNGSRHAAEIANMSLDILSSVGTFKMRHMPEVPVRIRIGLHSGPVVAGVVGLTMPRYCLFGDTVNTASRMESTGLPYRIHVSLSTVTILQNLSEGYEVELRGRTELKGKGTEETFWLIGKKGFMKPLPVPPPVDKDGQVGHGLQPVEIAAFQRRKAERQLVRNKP

For data set [2], the target named is T2, human guanylate cyclase 1 (GC1) (human, UniProt Q02846 52-1103).
T2 sequence (looked up): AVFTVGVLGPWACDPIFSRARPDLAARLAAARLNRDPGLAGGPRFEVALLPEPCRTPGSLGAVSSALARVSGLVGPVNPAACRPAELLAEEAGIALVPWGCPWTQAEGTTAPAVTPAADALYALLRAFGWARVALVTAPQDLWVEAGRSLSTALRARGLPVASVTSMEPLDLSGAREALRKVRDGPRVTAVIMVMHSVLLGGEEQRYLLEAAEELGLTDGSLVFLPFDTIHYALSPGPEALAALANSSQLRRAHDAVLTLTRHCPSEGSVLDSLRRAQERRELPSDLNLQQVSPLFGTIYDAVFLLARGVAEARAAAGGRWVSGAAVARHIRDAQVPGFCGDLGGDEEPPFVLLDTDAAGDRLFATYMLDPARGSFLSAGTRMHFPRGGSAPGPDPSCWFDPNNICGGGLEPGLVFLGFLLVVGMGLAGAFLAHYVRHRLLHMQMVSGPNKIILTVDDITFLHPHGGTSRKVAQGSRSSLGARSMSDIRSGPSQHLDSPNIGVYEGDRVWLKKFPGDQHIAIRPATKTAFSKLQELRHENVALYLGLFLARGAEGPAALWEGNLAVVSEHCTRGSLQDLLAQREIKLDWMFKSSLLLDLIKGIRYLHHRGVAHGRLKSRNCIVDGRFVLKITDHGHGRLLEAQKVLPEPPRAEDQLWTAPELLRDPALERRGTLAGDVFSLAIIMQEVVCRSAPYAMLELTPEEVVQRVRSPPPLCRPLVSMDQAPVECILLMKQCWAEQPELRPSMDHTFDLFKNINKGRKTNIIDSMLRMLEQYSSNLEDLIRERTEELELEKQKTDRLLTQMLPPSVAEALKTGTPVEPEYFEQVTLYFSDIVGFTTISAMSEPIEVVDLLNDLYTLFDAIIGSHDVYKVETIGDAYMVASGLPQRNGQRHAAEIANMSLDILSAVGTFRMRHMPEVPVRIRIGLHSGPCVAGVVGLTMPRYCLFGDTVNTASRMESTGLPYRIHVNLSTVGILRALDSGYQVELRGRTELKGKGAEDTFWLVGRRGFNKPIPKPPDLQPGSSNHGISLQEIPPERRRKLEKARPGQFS

Data set [3] concerns the molecule itself. Put plainly: SEC; analytical SEC on Superose 12 10/300 GL; 42 µM protein, 200 µl injected; 20 mM Tris-HCl pH 7.5, 150 mM KCl, 1 mM DTT; with 500 µM EGTA + 1 mM Mg2+ or 500 µM Ca2+ + 1 mM Mg2+; apparent molecular mass from a calibration curve.
The target of data set [4] is T1, human guanylate cyclase 2 (GC2). Put plainly: cell-based or functional assay.
The target in data set [5] is T2, human guanylate cyclase 1 (GC1). The data set is described as follows: cell-based or functional assay.

B1: wild-type human GCAP1-E6S (guanylate cyclase-activating protein 1, myristoylated) (natural protein)
chain: MGNVMSGKSVEELSSTECHQWYKKFMTECPSGQLTLYEFRQFFGLKNLSPSASQYVEQMFETFDFNKDGYIDFMEYVAALSLVLKGKVEQKLRWYFKLYDVDGNGCIDRDELLTIIQAIRAINPCSDTTMTAEEFTDTVFSKIDVNGDGELSLEEFIEGVQKDQMLLDTLTRSLDLTRIVRRLQNGEQDEEGADEAAEAAG
modifications: myristoylation on the N-terminal Gly residue
Regarding B1, the X-fold of Ca2+-dependent regulation of GC2 (cGMP synthesis by HEK293 membranes with 5 µM GCAP1, low Ca2+ <19 nM against high Ca2+ ~30 µM) in data set [1] amounted to 10.8. The X-fold of Ca2+-dependent regulation of GC1 (cGMP synthesis by HEK293 membranes with 5 µM GCAP1, low Ca2+ <19 nM against high Ca2+ ~30 µM) in data set [2] stood at 37.4.

B2: GCAP1 N104K-G105R (guanylate cyclase-activating protein 1, myristoylated, on the E6S background) (natural protein, human, UniProt P43080 1-201, looked up)
chain: B1 chain with N104K, G105R
modifications: myristoylation on the N-terminal Gly residue
notes: cDNA in pET-11a between NdeI and NheI; E6S introduced to allow myristoylation by yeast NMT; N104K and G105R introduced by site-directed mutagenesis; N104K-G105R is the patient's variant; E6S is a change made by people; Myristoylation on the N-terminal Gly implies that the initiator Met is removed (surmised); No tag is mentioned; also called N104K-G105R GCAP1; double mutant; source: E. coli …
Turning to B2, the “stoichiometry N” value in data set [3] came to 2. Further, the “X-fold of Ca2+-dependent regulation of GC2 (cGMP synthesis by HEK293 membranes with 5 µM GCAP1, low Ca2+ <19 nM against high Ca2+ ~30 µM)” value in data set [4] was found to be 0.6. Besides, in data set [5], the “X-fold of Ca2+-dependent regulation of GC1 (cGMP synthesis by HEK293 membranes with 5 µM GCAP1, low Ca2+ <19 nM against high Ca2+ ~30 µM)” value was 0.47.

For the origin of these results see PMC8070792, “Impaired Ca^2+ Sensitivity of a Novel GCAP1 Variant Causes Cone Dystrophy and Leads to Abnormal Synaptic Transmission Between Photoreceptors and Bipolar Cells” (International Journal of Molecular Sciences, 2021).
